Consider two molecules from patent US20030100114, “Methods for regulating T cell subsets by modulating transcription factor activity” (President and Fellows of Harvard College, published 2003).

Data set [1] concerns the target T1, c-Jun (Mus musculus, UniProt P05627 P05627:1-334). Briefly: EMSA. The note with it: tags: full-length, pGEM4, rabbit reticulocyte lysate TnT; label: 32P. The method, then:
(§1) Electrophoretic mobility shift assays (EMSA) were performed as follows. 100 ng of double-stranded oligonucleotides were end-labeled with γ-³²P-dATP (DuPont NEN Research Product, Wilmington, Del.) using T4 polynucleotide kinase (Pharmacia LKB Biotechnology, Inc., Piscataway, N.J.). The labeled ds-oligonucleotides were fractionated on 15-20% polyacrylamide gels, eluted overnight at 37° C. in 1×TE and precipitated in ethanol. Binding assays were performed at room temperature for 20 minutes using 0.5 μg of recombinant proteins or 4 μl of in vitro translated products, 500 ng poly(dI-dC), and 20,000 cpm of probe in a 15 μl volume of 20 mM HEPES (pH 7.9), 100 mM KCl, 5% glycerol, 1 mM EDTA, 5 mM DTT, 0.1% NP-40, and 0.5 mg/ml BSA. The samples were then fractionated in 4% non-denaturing polyacrylamide gel containing 0.5×TBE at room temperature. Oligonucleotides derived from the murine IL4 promoter used in EMSA were:
(§2) NF-AT proteins interact cooperatively with AP-1 family member proteins to form higher mobility complexes on IL-2 and IL-4 promoter DNA on EMSA (Jain, J. (1993) Nature 365:353-355; Rooney, J. et al. (1995) Immunity 2:545-553). […] To determine if c-Maf interacted with NF-AT in the presence of DNA, recombinant NF-ATp and c-Maf proteins were used separately or together in EMSA with the 33 bp oligonucleotide containing both the NF-AT and adjacent MARE sites. […]
(Mobility shift assays separate free from complexed probe on a gel.)

For data set [2], the target named is T2, c-Maf (b-zip domain, aa 171-371) (UniProt P54843 P54843:171-370). Nature of the data set: EMSA; competed by homologous unlabeled probe; additional complex formed with NF-ATp. The following applies: tags: S-Tag, pET29, E. coli BL21(DE3); label: 32P. As to the method: as §1, §2
T2 sequence (P54843 171-370, one chain of several): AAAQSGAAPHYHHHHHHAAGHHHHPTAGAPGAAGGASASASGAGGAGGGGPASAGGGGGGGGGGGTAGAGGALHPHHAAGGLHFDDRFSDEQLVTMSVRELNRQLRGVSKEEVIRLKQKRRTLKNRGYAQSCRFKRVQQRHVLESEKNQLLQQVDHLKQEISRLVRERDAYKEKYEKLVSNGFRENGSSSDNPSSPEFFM
The target in data set [3] is T1, c-Jun. Briefly: EMSA; consensus MARE contains core TRE site. The following applies: tags: full-length, pGEM4, rabbit reticulocyte lysate TnT; label: 32P. The method, then:
as §1, with “were: […]” for “were:”

Data set [4] deals with T2, c-Maf (b-zip domain, aa 171-371). Briefly: EMSA; 20 mM HEPES pH 7.9, 100 mM KCl, room temperature. The note with it: tags: S-Tag, pET29, E. coli BL21(DE3); label: 32P. The method, then:
as §1, with “were: […]” for “were:”

T1 sequence (P05627 whole entry, one chain of several): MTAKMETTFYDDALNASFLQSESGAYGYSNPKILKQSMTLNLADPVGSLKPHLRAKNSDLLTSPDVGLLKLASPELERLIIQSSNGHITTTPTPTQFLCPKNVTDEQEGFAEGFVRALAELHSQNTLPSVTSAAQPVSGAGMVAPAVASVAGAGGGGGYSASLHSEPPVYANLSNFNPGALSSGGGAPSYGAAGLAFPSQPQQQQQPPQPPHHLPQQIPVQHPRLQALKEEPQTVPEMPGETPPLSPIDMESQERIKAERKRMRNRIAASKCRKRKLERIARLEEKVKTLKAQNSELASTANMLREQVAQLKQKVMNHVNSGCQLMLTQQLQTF

B1: IL-4 promoter -59 to -27 wild type (dsDNA)
DNA 1: CTCATTTTCCCTTGGTTTCAGCAACTTTAACTC
DNA 2: GAGTTAAAGTTGCTGAAACCAAGGGAAAATGAG
For B1, the binding result with c-Jun [1] is reported as “no binding”; in data set [2], “binds”.

B2: consensus MARE (dsDNA)
DNA 1: GGAATTGCTGACTCAGCATTACT
DNA 2: AGTAATGCTGAGTCAGCAATTCC
Turning to B2, the binding result (with c-Jun [3]; in data set [4]) was “binds” each time.
